This is an account of results in paper PMC7824211.

In this assay the target is recombinant HA Victoria (B/Brisbane/60/2008) fused to an HIS-Tag (influenza B virus B/Brisbane/60/2008 (Victoria lineage)). Put plainly: SPR.

With “NKp46-Ig (extracellular portion of human NKp46 fused to the Fc portion of human IgG1) (from UniProt O76036 22-258) (Fc fusion)”, the fold lower affinity than to the HA of IAV was 7 fold.
